Measured values published in patent US20030104352.

Molecular target: T1, LtrA (L1.LtrB group II intron-encoded protein) (Lactococcus lactis) (UniProt P0A3U0)
T1 sequence: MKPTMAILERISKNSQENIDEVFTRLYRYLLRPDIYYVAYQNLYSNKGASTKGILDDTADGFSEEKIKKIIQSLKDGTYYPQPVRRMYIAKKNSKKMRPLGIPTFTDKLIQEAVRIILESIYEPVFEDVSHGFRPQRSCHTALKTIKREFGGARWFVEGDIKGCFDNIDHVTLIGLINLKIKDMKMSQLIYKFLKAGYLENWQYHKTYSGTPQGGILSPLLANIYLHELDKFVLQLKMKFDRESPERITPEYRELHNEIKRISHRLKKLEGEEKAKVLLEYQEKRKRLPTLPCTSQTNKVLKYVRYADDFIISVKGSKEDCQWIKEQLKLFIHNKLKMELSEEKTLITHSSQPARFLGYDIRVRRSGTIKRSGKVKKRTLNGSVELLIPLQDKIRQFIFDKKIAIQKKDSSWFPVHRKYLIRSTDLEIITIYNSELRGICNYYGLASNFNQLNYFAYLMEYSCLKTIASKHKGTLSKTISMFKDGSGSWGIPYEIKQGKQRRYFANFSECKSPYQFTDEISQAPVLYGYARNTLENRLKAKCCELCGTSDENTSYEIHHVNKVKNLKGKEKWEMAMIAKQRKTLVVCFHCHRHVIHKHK
Assay: cell_activity
Conditions: for binding signal (mutability value): doped target pool selection; for activity: after IPTG induction

For “L1.LtrB deltaORF intron RNA ; L1.LtrB DNA target -30 to +15”, the activity (% TetR colonies) (100 uM IPTG, ~70% without IPTG) was 100.
“L1.LtrB deltaORF intron RNA ; L1.LtrB target C-7A” showed a binding signal (mutability value) ([24 (-7 C>A)], preferred over wild type) of 3.83.
In the case of “L1.LtrB deltaORF intron RNA ; L1.LtrB target G-21A”, the binding signal (mutability value) ([10 (-21 G>A)]) is reported as -0.6.
“L1.LtrB deltaORF intron RNA ; L1.LtrB target G-21C” was tested, and the binding signal (mutability value) ([10 (-21 G>C)]) was -0.9.
“L1.LtrB deltaORF intron RNA ; L1.LtrB target G-21T” gave a binding signal (mutability value) ([10 (-21 G>T)], absent from active sites) of -1.
“retargeted L1.LtrB intron HIV1-4021s ; HIV-1 proviral target 4021s” gave an activity greater than 60 % mobility.
“retargeted L1.LtrB intron HIV1-4069s ; HIV-1 pol target 4069s” gave an activity (also inserted in human cells (p89)) greater than 60 % mobility.
